# What was measured:
# [1] = target: hexon of the Ad5 vector Ad5.5 (on virions) (human adenovirus 5) (UniProt P04133); assay: SPR; Biacore T200; about 300 to 5,000 RU of Ad virions immobilised on a CM5 chip, coagulation factors flowed over at four concentrations, 50 uL/min; running buffer 10 mM HEPES, 150 mM NaCl, 1 mM CaCl2, 0.5 mM MgCl2, 0.1% BSA, 0.05% polysorbate 20, pH 7.4; regeneration with 3 mM EDTA; global fit to a 1:1 kinetic interaction model, double referencing
# [2] = target: hexon of the Ad5 vector Ad5.6 (on virions) (human adenovirus 5) (UniProt P04133); assay: as above
# [3] = target: hexon of wild-type human adenovirus type 1 (on virions) (human adenovirus 1); assay: as above
# [4] = target: chimeric hexon of the Ad5 vector Ad5:H57.1 (Ad5 hexon with residues 112-593 from Ad57 hexon, on virions) (human adenovirus 5 | human adenovirus 57) (UniProt P04133); assay: as above
# [5] = target: hexon of the Ad5 vector Ad5.10 (Ad5 hexon with HVR1 of Ad6 hexon, on virions) (human adenovirus 5) (UniProt P04133); assay: as above
# [6] = target: chimeric hexon of the Ad5 vector Ad5:H6.1 (Ad5 hexon with residues 112-593 from Ad6 hexon, on virions) (human adenovirus 5 | human adenovirus 6) (UniProt P04133); assay: as above
# [7] = target: hexon of the Ad5 vector Ad5.4 (HVR7 mutant, on virions) (human adenovirus 5) (UniProt P04133); assay: as above
# [8] = target: chimeric hexon of the Ad5 vector Ad5:H1.2 (Ad1 hexon section with HVR7 mutations, on virions) (human adenovirus 5 | human adenovirus 1) (UniProt P04133); assay: as above
# [9] = target: chimeric hexon of the Ad5 vector Ad5:H1.1 (Ad5 hexon with residues 112-593 from Ad1 hexon, on virions) (human adenovirus 5 | human adenovirus 1) (UniProt P04133); assay: as above
# [10] = target: chimeric hexon of Ad5:H1.1 (Ad5 vector, hexon residues 112-593 from Ad1 hexon), on the virion (human adenovirus type 5 | human adenovirus type 1) (UniProt P04133); assay: SPR; Biacore T200; about 300 to 5,000 RU of Ad virions immobilised on a CM5 chip, coagulation factors flowed over at four concentrations, 50 uL/min; 10 mM HEPES, 150 mM NaCl, 1 mM CaCl2, 0.5 mM MgCl2, 0.1% BSA, 0.05% polysorbate 20, pH 7.4; global fit to a 1:1 kinetic interaction model, double referencing
Substance,Kd [1] [nM],koff [1] [s⁻¹],kon [1] [M⁻¹ s⁻¹],Kd [2] [nM],koff [2] [s⁻¹],kon [2] [M⁻¹ s⁻¹],Kd [3] [nM],koff [3] [s⁻¹],kon [3] [M⁻¹ s⁻¹],Kd [4] [nM],koff [4] [s⁻¹],kon [4] [M⁻¹ s⁻¹],Kd [5] [nM],koff [5] [s⁻¹],kon [5] [M⁻¹ s⁻¹],Kd [6] [nM],koff [6] [s⁻¹],kon [6] [M⁻¹ s⁻¹],Kd [7] [nM],koff [7] [s⁻¹],other results
mouse prothrombin (coagulation factor II) (from UniProt P19221 44-618) (natural protein),216,0.0676,314000,420,0.026,62400,14,0.000687,49800,10,0.00031,29800,356,0.06,168000,8.6,0.000535,62200,36000,0.281,kon [7]: 7770 M⁻¹ s⁻¹; Kd [8]: 1300 nM; koff [8]: 0.0483 s⁻¹; kon [8]: 36800 M⁻¹ s⁻¹; Kd [9]: 16 nM; koff [9]: 0.00118 s⁻¹; kon [9]: 71600 M⁻¹ s⁻¹; Kd [10]: 16 nM
human coagulation factor X (from UniProt P00742 41-488) (natural protein),5.2,0.000661,126000,0.94,0.000127,135000,220,0.0501,232000,58,0.00316,54300,1.1,0.000122,112000,43,0.00914,214000,10,0.000338,kon [7]: 33900 M⁻¹ s⁻¹; Kd [8]: 650 nM; koff [8]: 0.0631 s⁻¹; kon [8]: 97200 M⁻¹ s⁻¹; Kd [9]: 300 nM; koff [9]: 0.077 s⁻¹; kon [9]: 253000 M⁻¹ s⁻¹; Kd [10]: 300 nM
bovine coagulation factor X (from UniProt P00743 41-492) (natural protein),438,0.169,387000,1620,0.167,104000,160,0.0381,232000,28,0.00342,121000,276,0.151,549000,97,0.0132,135000,540,0.147,kon [7]: 274000 M⁻¹ s⁻¹; Kd [8]: 1100 nM; koff [8]: 0.085 s⁻¹; kon [8]: 77400 M⁻¹ s⁻¹; Kd [9]: 220 nM; koff [9]: 0.0512 s⁻¹; kon [9]: 236000 M⁻¹ s⁻¹; Kd [10]: 220 nM
mouse coagulation factor X (from UniProt O88947 41-481) (natural protein),2.5,0.00104,416000,0.37,0.000115,310000,0.31,7.73e-05,253000,0.65,9.23e-05,143000,0.58,0.00014,240000,0.31,3.78e-05,122000,1.9,0.000479,kon [7]: 248000 M⁻¹ s⁻¹; Kd [8]: 5 nM; koff [8]: 0.00084 s⁻¹; kon [8]: 169000 M⁻¹ s⁻¹; Kd [9]: 0.82 nM; koff [9]: 0.000372 s⁻¹; kon [9]: 454000 M⁻¹ s⁻¹; Kd [10]: 0.82 nM
